Biological target: T1, TNFR1 (Homo sapiens, UniProt P19438)
T1 chain: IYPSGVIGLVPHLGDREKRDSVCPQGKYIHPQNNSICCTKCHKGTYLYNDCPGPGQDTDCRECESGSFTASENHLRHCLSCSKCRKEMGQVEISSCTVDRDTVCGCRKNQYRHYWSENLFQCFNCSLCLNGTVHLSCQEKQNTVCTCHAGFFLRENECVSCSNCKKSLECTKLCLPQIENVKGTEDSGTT
Assay: yeast display SC50

B1: K8G (designed binder)
chain: SMEEEVEGAAKEYEKKKKEAIEKHLEKLKAKDKEAAERFLKELEEAAKEYAKDEAKTMSEEEAKRRAKKYKEKVLLSELSEEEQKEIKEAEEKLVRTILKYVEEAAK
For B1, the “apparent Kd (screen)” value was 0.593 nM.

B2: E86C (designed binder)
chain: SMEEEVEKAAKEYEKKKKEAIEKHLEKLKAKDKEAAERFLKELEEAAKEYAKDEAKTMSEEEAKRRAKKYKEKVLLSELSEEEQKCIKEAEEKLVRTILKYVEEAAK
For B2, the “apparent Kd (screen)” value was 0.653 nM.

B3: L94C (designed binder)
chain: SMEEEVEKAAKEYEKKKKEAIEKHLEKLKAKDKEAAERFLKELEEAAKEYAKDEAKTMSEEEAKRRAKKYKEKVLLSELSEEEQKEIKEAEEKCVRTILKYVEEAAK
For B3, the “apparent Kd (screen)” value was 2.73 nM.

B4: K29Q (designed binder)
chain: SMEEEVEKAAKEYEKKKKEAIEKHLEKLQAKDKEAAERFLKELEEAAKEYAKDEAKTMSEEEAKRRAKKYKEKVLLSELSEEEQKEIKEAEEKLVRTILKYVEEAAK
For B4, the “apparent Kd (screen)” value was 0.593 nM.

B5: K107R (designed binder)
chain: SMEEEVEKAAKEYEKKKKEAIEKHLEKLKAKDKEAAERFLKELEEAAKEYAKDEAKTMSEEEAKRRAKKYKEKVLLSELSEEEQKEIKEAEEKLVRTILKYVEEAAR
With B5 the “apparent Kd (screen)” value was 1.54 nM.

B6: A55S (designed binder)
chain: SMEEEVEKAAKEYEKKKKEAIEKHLEKLKAKDKEAAERFLKELEEAAKEYAKDESKTMSEEEAKRRAKKYKEKVLLSELSEEEQKEIKEAEEKLVRTILKYVEEAAK
For B6, the “apparent Kd (screen)” value was 1.69 nM.

B7: K69R (designed binder)
chain: SMEEEVEKAAKEYEKKKKEAIEKHLEKLKAKDKEAAERFLKELEEAAKEYAKDEAKTMSEEEAKRRAKRYKEKVLLSELSEEEQKEIKEAEEKLVRTILKYVEEAAK
For B7, the “apparent Kd (screen)” value was 1.27 nM.

B8: K93G (designed binder)
chain: SMEEEVEKAAKEYEKKKKEAIEKHLEKLKAKDKEAAERFLKELEEAAKEYAKDEAKTMSEEEAKRRAKKYKEKVLLSELSEEEQKEIKEAEEGLVRTILKYVEEAAK
With B8 the “apparent Kd (screen)” value was 0.79 nM.

B9: E26T (designed binder)
chain: SMEEEVEKAAKEYEKKKKEAIEKHLTKLKAKDKEAAERFLKELEEAAKEYAKDEAKTMSEEEAKRRAKKYKEKVLLSELSEEEQKEIKEAEEKLVRTILKYVEEAAK
For B9, the “apparent Kd (screen)” value was 0.593 nM.

B10: V6E (designed binder)
chain: SMEEEEEKAAKEYEKKKKEAIEKHLEKLKAKDKEAAERFLKELEEAAKEYAKDEAKTMSEEEAKRRAKKYKEKVLLSELSEEEQKEIKEAEEKLVRTILKYVEEAAK
In the case of B10, the “apparent Kd (screen)” value is reported as 11.4 nM.

B11: A67I (designed binder)
chain: SMEEEVEKAAKEYEKKKKEAIEKHLEKLKAKDKEAAERFLKELEEAAKEYAKDEAKTMSEEEAKRRIKKYKEKVLLSELSEEEQKEIKEAEEKLVRTILKYVEEAAK
B11 was tested, and the “apparent Kd (screen)” value was 7.07 nM.

B12: L40V (designed binder)
chain: SMEEEVEKAAKEYEKKKKEAIEKHLEKLKAKDKEAAERFVKELEEAAKEYAKDEAKTMSEEEAKRRAKKYKEKVLLSELSEEEQKEIKEAEEKLVRTILKYVEEAAK
In the case of B12, the “apparent Kd (screen)” value is reported as 0.49 nM.

B13: A67P (designed binder)
chain: SMEEEVEKAAKEYEKKKKEAIEKHLEKLKAKDKEAAERFLKELEEAAKEYAKDEAKTMSEEEAKRRPKKYKEKVLLSELSEEEQKEIKEAEEKLVRTILKYVEEAAK
In the case of B13, the “apparent Kd (screen)” value is reported as 0.593 nM.

B14: V74C (designed binder)
chain: SMEEEVEKAAKEYEKKKKEAIEKHLEKLKAKDKEAAERFLKELEEAAKEYAKDEAKTMSEEEAKRRAKKYKEKCLLSELSEEEQKEIKEAEEKLVRTILKYVEEAAK
With B14 the “apparent Kd (screen)” value was 4.39 nM.

B15: E72A (designed binder)
chain: SMEEEVEKAAKEYEKKKKEAIEKHLEKLKAKDKEAAERFLKELEEAAKEYAKDEAKTMSEEEAKRRAKKYKAKVLLSELSEEEQKEIKEAEEKLVRTILKYVEEAAK
For B15, the “apparent Kd (screen)” value was 2.73 nM.

B16: E86H (designed binder)
chain: SMEEEVEKAAKEYEKKKKEAIEKHLEKLKAKDKEAAERFLKELEEAAKEYAKDEAKTMSEEEAKRRAKKYKEKVLLSELSEEEQKHIKEAEEKLVRTILKYVEEAAK
B16 was tested, and the “apparent Kd (screen)” value was 1.69 nM.

B17: E34T (designed binder)
chain: SMEEEVEKAAKEYEKKKKEAIEKHLEKLKAKDKTAAERFLKELEEAAKEYAKDEAKTMSEEEAKRRAKKYKEKVLLSELSEEEQKEIKEAEEKLVRTILKYVEEAAK
For B17, the “apparent Kd (screen)” value was 0.446 nM.

B18: L43E (designed binder)
chain: SMEEEVEKAAKEYEKKKKEAIEKHLEKLKAKDKEAAERFLKEEEEAAKEYAKDEAKTMSEEEAKRRAKKYKEKVLLSELSEEEQKEIKEAEEKLVRTILKYVEEAAK
With B18 the “apparent Kd (screen)” value was 16.7 nM.

B19: M58F (designed binder)
chain: SMEEEVEKAAKEYEKKKKEAIEKHLEKLKAKDKEAAERFLKELEEAAKEYAKDEAKTFSEEEAKRRAKKYKEKVLLSELSEEEQKEIKEAEEKLVRTILKYVEEAAK
B19 was tested, and the “apparent Kd (screen)” value was 11.4 nM.

B20: L75S (designed binder)
chain: SMEEEVEKAAKEYEKKKKEAIEKHLEKLKAKDKEAAERFLKELEEAAKEYAKDEAKTMSEEEAKRRAKKYKEKVSLSELSEEEQKEIKEAEEKLVRTILKYVEEAAK
With B20 the “apparent Kd (screen)” value was 0.718 nM.

B21: R66N (designed binder)
chain: SMEEEVEKAAKEYEKKKKEAIEKHLEKLKAKDKEAAERFLKELEEAAKEYAKDEAKTMSEEEAKRNAKKYKEKVLLSELSEEEQKEIKEAEEKLVRTILKYVEEAAK
In the case of B21, the “apparent Kd (screen)” value is reported as 16.7 nM.

B22: F39P (designed binder)
chain: SMEEEVEKAAKEYEKKKKEAIEKHLEKLKAKDKEAAERPLKELEEAAKEYAKDEAKTMSEEEAKRRAKKYKEKVLLSELSEEEQKEIKEAEEKLVRTILKYVEEAAK
For B22, the “apparent Kd (screen)” value was 4.83 nM.

B23: A47F (designed binder)
chain: SMEEEVEKAAKEYEKKKKEAIEKHLEKLKAKDKEAAERFLKELEEAFKEYAKDEAKTMSEEEAKRRAKKYKEKVLLSELSEEEQKEIKEAEEKLVRTILKYVEEAAK
In the case of B23, the “apparent Kd (screen)” value is reported as 0.593 nM.

B24: E37Y (designed binder)
chain: SMEEEVEKAAKEYEKKKKEAIEKHLEKLKAKDKEAAYRFLKELEEAAKEYAKDEAKTMSEEEAKRRAKKYKEKVLLSELSEEEQKEIKEAEEKLVRTILKYVEEAAK
B24 was tested, and the “apparent Kd (screen)” value was 0.49 nM.

B25: E104N (designed binder)
chain: SMEEEVEKAAKEYEKKKKEAIEKHLEKLKAKDKEAAERFLKELEEAAKEYAKDEAKTMSEEEAKRRAKKYKEKVLLSELSEEEQKEIKEAEEKLVRTILKYVENAAK
B25 was tested, and the “apparent Kd (screen)” value was 0.718 nM.

B26: K17N (designed binder)
chain: SMEEEVEKAAKEYEKKNKEAIEKHLEKLKAKDKEAAERFLKELEEAAKEYAKDEAKTMSEEEAKRRAKKYKEKVLLSELSEEEQKEIKEAEEKLVRTILKYVEEAAK
With B26 the “apparent Kd (screen)” value was 2.73 nM.

From paper PMC12416549 (2024)
